# Article PMC2270323, “Phosphorylation-Independent Regulation of the Diguanylate Cyclase WspR” (PLoS Biology, 2008)
# Where “and” joins values, the source holds several entries; their conditions need not be identical. Identical values can stand only once.
# Legend:
# [1] = molecular target: WspR from P. syringae DC3000 (full length) (P. syringae DC3000); assay: crystal structure; unpublished data: crystal structure of the WspR homolog from P. syringae
# [2] = molecular target: the molecule itself; assay: crystal structure; c-di-GMP-bound full-length WspR, 2.4 Å, space group C2, two molecules in the asymmetric unit; hanging drop, 0.1 M Tris-Cl pH 8.0, 2.9 M NaCl, 15% xylitol, 20 °C
# [3] = molecular target: the molecule itself; assay: SEC; c-di-GMP-bound protein as purified, 0.24 mM; Superdex 200 10/300; 25 mM Tris-Cl pH 7.5, 100 mM NaCl, 1 mM DTT
# [4] = molecular target: the molecule itself; assay: SEC; unpublished data: lysates of E. coli expressing WspR^R242A or WspR^GGAAF, gel filtration
# [5] = molecular target: the molecule itself; assay: SEC-MALS; nucleotide-free mutants as purified, 4 mg/ml (approximately 0.1 mM); Shodex KW-803; 25 mM Tris-HCl pH 7.5, 100 mM NaCl, 1 mM DTT
# [6] = molecular target: the molecule itself; assay: SEC; nucleotide-free protein (wild type: PDE-treated, PDE and nucleotide removed; GGAAF as purified), 0.08-0.24 mM; Superdex 200 10/300; 25 mM Tris-Cl pH 7.5, 100 mM NaCl, 1 mM DTT; distribution depends on protein concentration
# [7] = molecular target: the molecule itself; assay: SEC-MALS; stalk mutants as purified (c-di-GMP bound), approximately 0.1 mM; Shodex KW-803; 25 mM Tris-Cl pH 7.5, 100 mM NaCl, 1 mM DTT
molecule,measurement,setting,value
WspR from P. syringae DC3000 (full length) (enzyme),stoichiometry N,[1],4
"WspR from P. aeruginosa, wild type (full length) (enzyme, the nucleotide-free form was made by treatment with the PDE SadR/RocR and repurification; The nucleotide state is told in each assay's format; also called WspR^wt; PA3702; source: E. coli BL21(DE3), purified (NiNTA, SEC); also E. coli BL21, in lysate; not shown: His6, C-terminal, kept) MHNPHESKTDLGAPLDGAVMVLLVDDQAMIGEAVRRSLASEAGIDFHFCSDPQQAVAVANQIKPTVILQDLVMPGVDGLTLLAAYRGNPATRDIPIIVLSTKEEPTVKSAAFAAGANDYLVKLPDAIELVARIRYHSRSYIALQQRDEAYRALRESQQQLLETNLVLQRLMNSDGLTGLSNRRHFDEYLEMEWRRSLREQSQLSLLMIDVDYFKSYNDTFGHVAGDEALRQVAGAIREGCSRSSDLAARYGGEEFAMVLPGTSPGGARLLAEKVRRTVESLQISHDQPRPGSHLTVSIGVSTLVPGGGGQTFRVLIEMADQALYQAKNNGRNQVGLMEQPVPPAPAG",stoichiometry N,[2],4
same,stoichiometry N,[3],2
"WspR^R242A (I-site mutant of P. aeruginosa WspR) (enzyme, WspR, P. aeruginosa PAO1, locus tag PA3702, with R242A; Purifies essentially nucleotide-free; source: E. coli BL21(DE3), purified (NiNTA, SEC); also E. coli BL21, in lysate; not shown: His6, C-terminal, kept) MHNPHESKTDLGAPLDGAVMVLLVDDQAMIGEAVRRSLASEAGIDFHFCSDPQQAVAVANQIKPTVILQDLVMPGVDGLTLLAAYRGNPATRDIPIIVLSTKEEPTVKSAAFAAGANDYLVKLPDAIELVARIRYHSRSYIALQQRDEAYRALRESQQQLLETNLVLQRLMNSDGLTGLSNRRHFDEYLEMEWRRSLREQSQLSLLMIDVDYFKSYNDTFGHVAGDEALRQVAGAIREGCSASSDLAARYGGEEFAMVLPGTSPGGARLLAEKVRRTVESLQISHDQPRPGSHLTVSIGVSTLVPGGGGQTFRVLIEMADQALYQAKNNGRNQVGLMEQPVPPAPAG",stoichiometry N,[4],2
same,stoichiometry N,[5],4
"WspR^R198A (I-site mutant of P. aeruginosa WspR) (enzyme, WspR, P. aeruginosa PAO1, locus tag PA3702, with R198A; Purifies essentially nucleotide-free; source: E. coli BL21(DE3), purified (NiNTA, SEC)) MHNPHESKTDLGAPLDGAVMVLLVDDQAMIGEAVRRSLASEAGIDFHFCSDPQQAVAVANQIKPTVILQDLVMPGVDGLTLLAAYRGNPATRDIPIIVLSTKEEPTVKSAAFAAGANDYLVKLPDAIELVARIRYHSRSYIALQQRDEAYRALRESQQQLLETNLVLQRLMNSDGLTGLSNRRHFDEYLEMEWRRSLAEQSQLSLLMIDVDYFKSYNDTFGHVAGDEALRQVAGAIREGCSRSSDLAARYGGEEFAMVLPGTSPGGARLLAEKVRRTVESLQISHDQPRPGSHLTVSIGVSTLVPGGGGQTFRVLIEMADQALYQAKNNGRNQVGLMEQPVPPAPAG",stoichiometry N,[5],2 and 4
"WspR^GGAAF (catalytically dead mutant of P. aeruginosa WspR) (enzyme, WspR, P. aeruginosa PAO1, locus tag PA3702; the two central glutamates of the GGEEF motif (residues 251-255) replaced by alanines; Purifies nucleotide-free; source: E. coli BL21(DE3), purified (NiNTA, SEC); also E. coli BL21, in lysate; not shown: His6, C-terminal, kept) MHNPHESKTDLGAPLDGAVMVLLVDDQAMIGEAVRRSLASEAGIDFHFCSDPQQAVAVANQIKPTVILQDLVMPGVDGLTLLAAYRGNPATRDIPIIVLSTKEEPTVKSAAFAAGANDYLVKLPDAIELVARIRYHSRSYIALQQRDEAYRALRESQQQLLETNLVLQRLMNSDGLTGLSNRRHFDEYLEMEWRRSLREQSQLSLLMIDVDYFKSYNDTFGHVAGDEALRQVAGAIREGCSRSSDLAARYGGAAFAMVLPGTSPGGARLLAEKVRRTVESLQISHDQPRPGSHLTVSIGVSTLVPGGGGQTFRVLIEMADQALYQAKNNGRNQVGLMEQPVPPAPAG",stoichiometry N,[6],4 and 2
"WspR^L170D (stalk mutant of P. aeruginosa WspR) (enzyme, WspR, P. aeruginosa PAO1, locus tag PA3702, with L170D; source: E. coli, purified) MHNPHESKTDLGAPLDGAVMVLLVDDQAMIGEAVRRSLASEAGIDFHFCSDPQQAVAVANQIKPTVILQDLVMPGVDGLTLLAAYRGNPATRDIPIIVLSTKEEPTVKSAAFAAGANDYLVKLPDAIELVARIRYHSRSYIALQQRDEAYRALRESQQQLLETNLVLQRDMNSDGLTGLSNRRHFDEYLEMEWRRSLREQSQLSLLMIDVDYFKSYNDTFGHVAGDEALRQVAGAIREGCSRSSDLAARYGGEEFAMVLPGTSPGGARLLAEKVRRTVESLQISHDQPRPGSHLTVSIGVSTLVPGGGGQTFRVLIEMADQALYQAKNNGRNQVGLMEQPVPPAPAG",stoichiometry N,[7],2 and 4
